Ki data for 16 molecules are collected here from publication PMC3286869 (Journal of Medicinal Chemistry, 2012).

For assay [1], the target named is T1, β-catenin (UniProt P35222 1-781).
T1 sequence (looked up): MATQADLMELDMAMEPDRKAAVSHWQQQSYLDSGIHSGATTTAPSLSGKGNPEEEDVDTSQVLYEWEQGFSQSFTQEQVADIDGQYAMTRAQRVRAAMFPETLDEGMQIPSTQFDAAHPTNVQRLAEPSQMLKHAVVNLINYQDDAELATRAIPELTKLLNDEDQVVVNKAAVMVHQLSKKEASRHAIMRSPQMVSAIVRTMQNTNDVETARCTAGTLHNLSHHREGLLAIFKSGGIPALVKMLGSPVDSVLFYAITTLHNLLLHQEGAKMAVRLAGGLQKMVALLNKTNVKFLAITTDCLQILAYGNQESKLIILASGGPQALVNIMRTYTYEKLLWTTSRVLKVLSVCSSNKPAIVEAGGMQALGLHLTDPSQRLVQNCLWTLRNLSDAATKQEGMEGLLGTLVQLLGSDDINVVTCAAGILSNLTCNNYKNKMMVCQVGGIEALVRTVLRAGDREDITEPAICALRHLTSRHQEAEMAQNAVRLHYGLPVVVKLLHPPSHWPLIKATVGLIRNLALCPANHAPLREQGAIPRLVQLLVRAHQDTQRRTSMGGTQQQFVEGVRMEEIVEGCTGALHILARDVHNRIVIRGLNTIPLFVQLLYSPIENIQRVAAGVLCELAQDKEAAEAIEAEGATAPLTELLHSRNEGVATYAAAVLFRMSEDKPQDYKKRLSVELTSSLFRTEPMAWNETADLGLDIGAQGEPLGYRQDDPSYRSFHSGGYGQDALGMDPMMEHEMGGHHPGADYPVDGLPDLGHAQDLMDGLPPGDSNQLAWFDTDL
Description: fluorescence polarisation.

Assay [2] addresses T1, β-catenin. Description: fluorescence polarisation. The source holds these as a separate data set. Background: In fluorescence polarisation assays a small probe gives low polarisation when free and higher when bound to something large.

Where two headings read alike, the source gives them in different places. Bridges are numbered along the chain shown (N, C = ends). Where no end group is shown, it is not given here. [ ]: non-standard residue; d: D form. dLys(N3) = [N-]=[N+]=NCCCC[C@@H](N)C(=O)O; Lys(N3) = [N-]=[N+]=NCCCC[C@H](N)C(=O)O; dPra = C#CC[C@@H](N)C(=O)O; Pra = C#CC[C@H](N)C(=O)O

The term Ki denotes the equilibrium dissociation constant of an inhibitor or competing ligand from its target.

B1: BCL9 peptide 4 (linear precursor of 12) (peptide)
chain: LSQEQLEHR[Lys(N3)]RSL[dPra]TLRDIQRLLF
modifications: not fully specified (N-terminus, C-terminus)
Take B1: affinity in the assay with β-catenin [1] was put at a Ki of 4900 nM.

B2: BCL9 peptide 3 (linear precursor of 11) (peptide)
chain: LSQEQLEHR[Lys(N3)]RSL[Pra]TLRDIQRLLF
modifications: not fully specified (N-terminus, C-terminus)
In the case of B2, affinity in the assay with β-catenin [1] was put at a Ki of 1400 nM.

B3: triazole-stapled BCL9 peptide 18 (reversed staple, D-Pra at position 360) (peptide)
chain: LSQEQLEHR[dPra]RSL[Lys(N3)]TLRDIQRLLF
modifications: triazole 10-14; not fully specified (N-terminus, C-terminus)
As for B3, the affinity with β-catenin [1] corresponds to a Ki of 4300 nM.

B4: triazole-stapled BCL9 peptide 11 (peptide)
chain: LSQEQLEHR[Lys(N3)]RSL[Pra]TLRDIQRLLF
modifications: triazole 10-14; not fully specified (N-terminus, C-terminus)
Regarding B4, in the assay with β-catenin [1], affinity was put at a Ki of 330 nM.

B5: triazole-stapled BCL9 peptide 17 (reversed staple, D-Nle(εN3) at i+4) (peptide)
chain: LSQEQLEHR[Pra]RSL[dLys(N3)]TLRDIQRLLF
modifications: triazole 10-14; not fully specified (N-terminus, C-terminus)
Regarding B5, the Ki with β-catenin [1] was 1170 nM.

B6: triazole-stapled BCL9 peptide 24 (reverse staple towards the C-terminus) (peptide)
chain: LSQEQLEHRERSL[Pra]TLR[dLys(N3)]IQRLLF
modifications: triazole 14-18; not fully specified (N-terminus, C-terminus)
As to B6, the Ki with β-catenin [2] is 560 nM.

B7: triazole-stapled BCL9 peptide 16 (reversed linker, L-Pra and L-Nle(εN3)) (peptide)
chain: LSQEQLEHR[Pra]RSL[Lys(N3)]TLRDIQRLLF
modifications: triazole 10-14; not fully specified (N-terminus, C-terminus)
As for B7, in the assay with β-catenin [1], the inhibition constant (Ki) was 770 nM.

B8: BCL9 peptide 9 (linear precursor of 17) (peptide)
chain: LSQEQLEHR[Pra]RSL[dLys(N3)]TLRDIQRLLF
modifications: not fully specified (N-terminus, C-terminus)
As for B8, the Ki with β-catenin [1] was determined as 11000 nM.

B9: BCL9 peptide 23 (reverse linkers towards the C-terminus, linear) (peptide)
chain: LSQEQLEHRERSL[Pra]TLR[dLys(N3)]IQRLLF
modifications: not fully specified (N-terminus, C-terminus)
Turning to B9, the affinity in the assay with β-catenin [2] corresponds to a Ki of 6660 nM.

B10: BCL9 peptide 19 (linkers closer to the N-terminus, linear) (peptide)
chain: LSQEQ[Lys(N3)]EHR[dPra]RSLQTLRDIQRLLF
modifications: not fully specified (N-terminus, C-terminus)
In the assay with β-catenin [2], B10 came in with a Ki of 1970 nM.

B11: triazole-stapled BCL9 peptide 12 (peptide)
chain: LSQEQLEHR[Lys(N3)]RSL[dPra]TLRDIQRLLF
modifications: triazole 10-14; not fully specified (N-terminus, C-terminus)
Molecule B11 registered an inhibition constant Ki with β-catenin [1] of 130 nM.

B12: triazole-stapled BCL9 peptide 20 (staple closer to the N-terminus) (peptide)
chain: LSQEQ[Lys(N3)]EHR[dPra]RSLQTLRDIQRLLF
modifications: triazole 6-10; not fully specified (N-terminus, C-terminus)
B12 came in with a Ki in the assay with β-catenin [2] of 410 nM.

B13: BCL9 24-mer peptide 1 (peptide)
peptide: Ac-LSQEQLEHRERSLQTLRDIQRMLF-NH2
As to B13, the Ki in the assay with β-catenin [1] is 600 nM.

B14: BCL9 24-mer peptide 2 (M372L) (peptide)
peptide: Ac-LSQEQLEHRERSLQTLRDIQRLLF-NH2
The molecule B14 yielded a Ki with β-catenin [1] of 940 nM.

B15: triazole-stapled BCL9 peptide 22 (C-terminal stapled peptide) (peptide)
chain: LSQEQLEHRERSL[Lys(N3)]TLR[dPra]IQRLLF
modifications: triazole 14-18; not fully specified (N-terminus, C-terminus)
With B15, the Ki in the assay with β-catenin [2] came to 260 nM.

B16: BCL9 peptide 21 (linkers closer to the C-terminus, linear) (peptide)
chain: LSQEQLEHRERSL[Lys(N3)]TLR[dPra]IQRLLF
modifications: not fully specified (N-terminus, C-terminus)
B16 came in with an inhibition constant Ki with β-catenin [2] of 2010 nM.
